Read-outs that look alike come from different tables or passages of the source.
Legend:
[1] = Ex vivo biodistribution of 86Y-labeled variants in AR42J tumor-bearing mice; conditions: athymic nude, mouse, iv, 1 ug, total radioactivity, mean; for tissue uptake at 1 h: 1 h post-injection; for tissue uptake at 4 h: 4 h post-injection; for tissue uptake at 24 h: 24 h post-injection
Description: To independently confirm these observations, ex vivo biodistribution studies were conducted using the same ^86Y-labeled compounds at matched timepoints (Fig. S16; Table S3). […]
For studies involving three variants (DOTA -TATE, DOTA-MVK(ε)-TATE, and DOTA-β-Gal-TATE), AR42J cells (5 × 10^6 cells per mouse) were subcutaneously inoculated into the right shoulder of the mice. Tumors were allowed to grow for 3 weeks, reaching a volume of 100 –200 mm³ before being used in subsequent experiments. For biodistribution or PET imaging studies, mice bearing subcutaneous AR42J tumors were administered 1.4 – 1.8 MBq (1 μg) of 111In-labeled DOTA-TATE variants or 2.7 – 4.9 MBq (1 μg) of 86Y-labeled DOTA-TATE variants via tail vein injection. Biodistribution studies with 111In-labeled DOTA -TATE variants were performed 1 hour post -injection (n = 3 per cohort), while studies with 86Y-labeled DOTA-TATE variants were conducted at 1, 4, and 24 hours post -injection (n = 3 per cohort). Mice were euthanized by CO2 asphyxiation, and 10 tissues, including tumors, were collected. All samples were weighed and counted on a gamma counter (2480 Wizard 3, Perkin Elmer Inc., Waltham, MA, USA). Results are presented as percentage of injected activity per gram (%IA/g) and mean values ± standard deviations. […]

[2] = PET/CT quantification of 86Y-labeled variants in AR42J xenograft mice; type: in vivo; conditions: athymic nude, mouse, in vivo, iv, total radioactivity, 86Y-labeled, PET/CT, AR42J xenograft mice, mean ± SD, n = 3; for SUV at 1 h: 1 h post-injection; for SUV at 24 h: 24 h post-injection
Description: For studies involving three variants (DOTA -TATE, DOTA-MVK(ε)-TATE, and DOTA-β-Gal-TATE), AR42J cells (5 × 10^6 cells per mouse) were subcutaneously inoculated into the right shoulder of the mice. Tumors were allowed to grow for 3 weeks, reaching a volume of 100 –200 mm³ before being used in subsequent experiments. For biodistribution or PET imaging studies, mice bearing subcutaneous AR42J tumors were administered 1.4 – 1.8 MBq (1 μg) of 111In-labeled DOTA-TATE variants or 2.7 – 4.9 MBq (1 μg) of 86Y-labeled DOTA-TATE variants via […]
tail vein injection. […]
PET imaging to assess the uptake of three 86Y-labeled DOTA-TATE variants (2.7 – 4.9 MBq, 1 μg) in the kidney and tumor was performed at 1, 4, and 24 hours post-injection (n = 3 per cohort) in mice bearing AR42J tumors using the MRS*PET/CT 120 scanner (MR Solutions, Guildford, UK). PET/CT data acquisition was managed using Preclinical Scan software (version 4.2.4.0, MR Solutions). Mice were anesthetized with 2% isoflurane, and static PET sc ans were acquired over 10 min. CT scans were obtained for attenuation correction and anatomical co-registration.
PET data were reconstructed using three-dimensional ordered-subsets expectation maximization, and were subsequently normalized, decay - and dead-time–corrected prior to analysis. PET/CT images were analyzed using MIM software (version 7.2.7, MIM Software Inc., Beachwood, OH, USA), and the quantitative evaluation of the maximum standardized uptake (SUVmax) and the average standardized uptake values (SUVmean) in the kidney and tumor were also performed. […]

AR42J xenografts = assay: Targeted alpha particle therapy, one-cycle regimen; type: in vivo, athymic nu/nu mice
Description: Building on the favorable dosimetry profiles observed for the cleavable linker-modified constructs, we next evaluated their therapeutic efficacy in vivo following one cycle of ^225Ac-labeled variants (Fig. 5C; Fig. S19A). […] Tumor growth, overall survival, and body weight were monitored over 95 days.
Mice received either a one-cycle regimen (n=8 per cohort) or a two-cycle regimen (n=6 per cohort) at an 8-day interval. Tumor volume and body weight were measured twice weekly after treatment using a digital caliper. Tumor volume was calculated using the formula V (mm^3) = (l × w^2)/2, where l (length) was the larger of the two perpendicular tumor axes, and w (width) was the smaller axis. Survival was monitored, with the endpoint defined as a tumor volume exceeding 2000 mm^3, a weight loss greater than 20% from baseline, or signs of distress in the mice.

[3] = blood, ex vivo, n = 3, read-out: Blood uptake
[4] = femur, ex vivo, n = 3, read-out: Femur uptake
[5] = heart, ex vivo, n = 3, read-out: Heart uptake
[6] = intestine, ex vivo, n = 3, read-out: Intestine uptake
[7] = ex vivo, n = 3, read-out: Tumor uptake
[8] = kidney, ex vivo, n = 3, read-out: Kidney uptake
[9] = liver, ex vivo, n = 3, read-out: Liver uptake
[10] = lung, ex vivo, n = 3, read-out: Lung uptake
[11] = muscle, ex vivo, n = 3, read-out: Muscle uptake
[12] = spleen, ex vivo, n = 3, read-out: Spleen uptake

SMILES: C[C@@H](O)[C@H](NC(=O)[C@@H]1CSSC[C@H](NC(=O)[C@@H](Cc2ccccc2)NC(=O)CN2CCN(CC(=O)O)CCN(CC(=O)O)CCN(CC(=O)O)CC2)C(=O)N[C@@H](Cc2ccc(O)cc2)C(=O)N[C@H](Cc2c[nH]c3ccccc23)C(=O)N[C@@H](CCCCN)C(=O)N[C@@H]([C@@H](C)O)C(=O)N1)C(=O)O [^86Y-DOTA-TATE, metal not drawn, reference compound]
- tissue uptake at 1 h ([1]; blood, i.v. 1 μg (2.7–4.9 MBq), ex vivo gamma counting, n = 3, read-out: Blood uptake): 0.22 %ID/g
- tissue uptake at 4 h [1, 3]: 0.14 %ID/g
- tissue uptake at 24 h [1, 3]: 0.03 %ID/g
- tissue uptake at 1 h [1, 4]: 0.47 %ID/g
- tissue uptake at 4 h [1, 4]: 0.35 %ID/g
- tissue uptake at 24 h [1, 4]: 0.2 %ID/g
- tissue uptake at 1 h [1, 5]: 0.37 %ID/g
- tissue uptake at 4 h [1, 5]: 0.25 %ID/g
- tissue uptake at 24 h [1, 5]: 0.09 %ID/g
- tissue uptake at 1 h [1, 6]: 0.37 %ID/g
- tissue uptake at 4 h [1, 6]: 0.51 %ID/g
- tissue uptake at 24 h [1, 6]: 0.05 %ID/g
- tissue uptake at 1 h [1, 7]: 5.98 %ID/g
- tissue uptake at 4 h [1, 7]: 4.83 %ID/g
- tissue uptake at 24 h [1, 7]: 3.48 %ID/g
- tissue uptake at 1 h [1, 8]: 9.29 %ID/g
- tissue uptake at 4 h [1, 8]: 6.61 %ID/g
- tissue uptake at 24 h [1, 8]: 3.74 %ID/g
- tissue uptake at 1 h [1, 9]: 0.29 %ID/g
- tissue uptake at 4 h [1, 9]: 0.25 %ID/g
- tissue uptake at 24 h [1, 9]: 0.15 %ID/g
- tissue uptake at 1 h [1, 10]: 0.83 %ID/g
- tissue uptake at 4 h [1, 10]: 0.34 %ID/g
- tissue uptake at 24 h [1, 10]: 0.13 %ID/g
- tissue uptake at 1 h [1, 11]: 0.44 %ID/g
- tissue uptake at 4 h [1, 11]: 0.38 %ID/g
- tissue uptake at 24 h [1, 11]: 0.1 %ID/g
- tissue uptake at 1 h [1, 12]: 0.4 %ID/g
- tissue uptake at 4 h [1, 12]: 0.25 %ID/g
- tissue uptake at 24 h [1, 12]: 0.15 %ID/g
- SUV at 1 h ([2]; 2.7–4.9 MBq (1 μg), read-out: Kidney SUVmax): 0.95 ± 0.04 SUV
- SUV at 1 h ([2]; read-out: Tumor SUVmax): 0.85 ± 0.14 SUV
- SUV at 4 h ([2]; 4 h post-injection, read-out: Kidney SUVmax): 0.62 ± 0.06 SUV
- SUV at 24 h ([2]; read-out: Kidney SUVmax): 0.41 ± 0.02 SUV
- SUV at 24 h ([2]; read-out: Tumor SUVmax): 0.55 ± 0.04 SUV

SMILES: C[C@@H](O)[C@H](NC(=O)[C@@H]1CSSC[C@H](NC(=O)[C@@H](Cc2ccccc2)NC(=O)CCCC(=O)Nc2cc(COC(=O)N(C)CCNC(=O)CN3CCN(CC(=O)O)CCN(CC(=O)O)CCN(CC(=O)O)CC3)ccc2O[C@@H]2O[C@H](CO)[C@H](O)[C@H](O)[C@H]2O)C(=O)N[C@@H](Cc2ccc(O)cc2)C(=O)N[C@H](Cc2c[nH]c3ccccc23)C(=O)N[C@@H](CCCCN)C(=O)N[C@@H]([C@@H](C)O)C(=O)N1)C(=O)O [^225Ac-DOTA-β-Gal-TATE, metal not drawn]
- Median survival time (AR42J xenografts; 148 kBq (1 μg) per mouse, AR42J xenograft-bearing mice, n = 8, Kaplan–Meier, vehicle 16 days): 86 days
- Tumor growth (AR42J xenografts; 148 kBq per mouse, monitored over 95 days, n = 8): most sustained inhibition of tumor growth, with minimal progression observed up to day 35 post-treatment
- Body weight (AR42J xenografts; 148 kBq per mouse, n = 8): gradually regained weight by day 14, maintaining stable body weights for the remainder of the study

Source: doi:10.1101/2025.09.11.675134, “Biodistribution-Driven Discovery Identifies a Glycosidase-Cleavable Linker to Reprogram Radiotheranostics” (bioRxiv, 2025)
